Data: US20090149339A1 (published 2009)
Ends that are not written are not given here. * marks the point of attachment. Biotin = O=C1N[C@H]2[C@H](CS[C@H]2CCCCC(=O)*)N1

Tests used:
[1] = biological target: T1, GST-41.8 kD PDZ domain fusion protein (hypothetical 41.8 kD protein AA4-85; PDZ domain 1 of 1) (UniProt P08515 1-218 = GST); test: A assay
T1 construct: also called hypoth

[2] = biological target: T2, GST-MPP1 PDZ domain fusion protein (55 Kd erythrocyte membrane protein AA101-186; PDZ domain 1 of 1) (UniProt P08515 1-218 = GST); test: A assay
T2 sequence (P08515 1-218, tags or fused parts left off): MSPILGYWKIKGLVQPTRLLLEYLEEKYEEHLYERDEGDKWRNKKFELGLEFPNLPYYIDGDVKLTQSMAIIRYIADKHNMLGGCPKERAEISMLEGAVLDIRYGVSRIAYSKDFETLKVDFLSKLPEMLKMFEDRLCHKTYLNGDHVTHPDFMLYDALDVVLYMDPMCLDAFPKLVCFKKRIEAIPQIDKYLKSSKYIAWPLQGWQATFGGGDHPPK

[3] = biological target: T3, GST-TIAM1 PDZ domain fusion protein (T-lymphoma invasion and metastasis inducing protein 1 AA1001-1088); PDZ 1 … (UniProt P08515 1-218 = GST); test: A assay
T3 sequence (P08515 1-218, tags or fused parts left off): as above

[4] = biological target: T4, GST-KIAA0303 PDZ domain fusion protein (KIAA0303 AA652-742; PDZ domain 1 of 1) (UniProt P08515 1-218 = GST); test: A assay
T4 construct: also called K303
T4 sequence (P08515 1-218, tags or fused parts left off): as above

[5] = biological target: T5, GST-NeDLG PDZ domain fusion protein (presynaptic protein sao102, neuroendocrine-dlg; PDZ domains 1-2 of 3) (UniProt P08515 1-218 = GST); test: A assay
T5 construct: also called NeDLG1

[6] = biological target: T6, GST-CASK PDZ domain fusion protein (CASK AA495-584; PDZ domain 1 of 1) (mouse, UniProt P08515 1-218 = GST); test: A/G assays
T6 construct: also called mCASK
T6 sequence (P08515 1-218, tags or fused parts left off): as above

[7] = biological target: T7, GST-LIM PDZ domain fusion protein (Human LIM protein AA29-112; PDZ domain 1 of 1) (human, UniProt P08515 1-218 = GST); test: A/G assays
T7 sequence (P08515 1-218, tags or fused parts left off): as above

[8] = biological target: GST-LIMK2 PDZ domain fusion protein (human LIM domain kinase 2 AA185-275; PDZ domain 1 of 1) (human, UniProt P08515 1-218 = GST); test: A/G assays
GST-LIMK2 PDZ domain fusion protein (human LIM domain kinase 2 AA185-275; PDZ domain 1 of 1), sequence (P08515 1-218, tags or fused parts left off): as above

[9] = biological target: T8, GST-MPP2 PDZ domain fusion protein (maguk p55 subfamily member 2 (DLG2) AA185-273; PDZ domain 1 of 1) (UniProt P08515 1-218 = GST); test: A/G assays
T8 construct: also called MMP2
T8 sequence (P08515 1-218, tags or fused parts left off): as above

[10] = biological target: GST-NOS1 PDZ domain fusion protein (human neuronal nitric oxide synthase; PDZ domain 1 of 1) (human, UniProt P08515 1-218 = GST); test: A/G assays
GST-NOS1 PDZ domain fusion protein (human neuronal nitric oxide synthase; PDZ domain 1 of 1), sequence (P08515 1-218, tags or fused parts left off): as above

[11] = biological target: T9, GST-AF6 PDZ domain fusion protein (af-6 protein AA985-1077; PDZ domain 1 of 1) (UniProt P08515 1-218 = GST); test: A/G assays
T9 sequence (P08515 1-218, tags or fused parts left off): as above

[12] = biological target: T10, GST-PTN-4 PDZ domain fusion protein (protein-tyrosine phosphatase meg1 AA774-862; PDZ domain 1 of 1) (UniProt P08515 1-218 = GST); test: A/G assays
T10 sequence (P08515 1-218, tags or fused parts left off): as above

[13] = biological target: GST-prIL16 PDZ domain fusion protein (putative interleukin 16 precursor AA170-383; PDZ domains 1-2 of 2) (UniProt P08515 1-218 = GST); test: A/G assays
GST-prIL16 PDZ domain fusion protein (putative interleukin 16 precursor AA170-383; PDZ domains 1-2 of 2), sequence (P08515 1-218, tags or fused parts left off): as above

[14] = biological target: T11, GST-KIAA0559 PDZ domain fusion protein (KIAA0559 AA766-870; PDZ1 of 1) (UniProt P08515 1-218 = GST); test: A/G assays
T11 construct: also called K559
T11 sequence (P08515 1-218, tags or fused parts left off): as above

[15] = biological target: T12, GST-RGS12 PDZ domain fusion protein (human regulator of G-protein signalling 12 AA35-103; PDZ domain 1 of 1) (human, UniProt P08515 1-218 = GST); test: A/G assays
T12 construct: also called RSG12
T12 sequence (P08515 1-218, tags or fused parts left off): as above

[16] = biological target: T13, GST-KIAA0316 PDZ domain fusion protein (KIAA0316 AA197-284; PDZ domain 1 of 1) (UniProt P08515 1-218 = GST); test: A/G assays
T13 construct: also called K316
T13 sequence (P08515 1-218, tags or fused parts left off): as above

[17] = biological target: GST-DVL1 PDZ domain fusion protein (human dishevelled segment polarity protein homolog AA248-340); PDZ domain … (human, UniProt P08515 1-218 = GST); test: A/G assays
GST-DVL1 PDZ domain fusion protein (human dishevelled segment polarity protein homolog AA248-340); PDZ domain …, sequence (P08515 1-218, tags or fused parts left off): as above

[18] = biological target: T14, GST-TAX40 PDZ domain fusion protein (human tax interaction protein 40 AA35-137; PDZ domain 1 of 1) (human, UniProt P08515 1-218 = GST); test: A/G assays
T14 construct: also called TX 40
T14 sequence (P08515 1-218, tags or fused parts left off): as above

[19] = biological target: T15, GST-CBP PDZ domain fusion protein (Cytohesin binding protein HE AA85-175; PDZ domain 1 of 1) (UniProt P08515 1-218 = GST); test: A/G assays
T15 construct: also called Prot

[20] = biological target: GST-MINT3 PDZ domain fusion protein (human MINT3 AA11-52; PDZ domain 1 of 1) (human, UniProt P08515 1-218 = GST); test: A/G assays
[21] = biological target: T16, GST-TAX2 PDZ domain fusion protein (human tax interaction protein 2 AA54-140; PDZ domain 1 of 1) (human, UniProt P08515 1-218 = GST); test: A/G assays
T16 construct: also called TX 2
T16 sequence (P08515 1-218, tags or fused parts left off): as above

[22] = biological target: T17, GST-PSD95 PDZ domain fusion protein (human post-synaptic density protein 95 AA387-724; PDZ domains 1-3 of 3) (human, UniProt P08515 1-218 = GST); test: A/G assays
T17 sequence (P08515 1-218, tags or fused parts left off): as above

[23] = biological target: T18, GST-TAX33 PDZ domain fusion protein (tax interaction protein 33 AA73-162; PDZ domain 1 of 1) (UniProt P08515 1-218 = GST); test: A/G assays
T18 construct: also called TX33

[24] = biological target: T19, GST-SYN1a PDZ domain fusion protein (alpha1-syntrophin AA96-189; PDZ domain 1 of 1) (UniProt P08515 1-218 = GST); test: A/G assays
T19 construct: also called SYN 1 alpha; SYNTR 1 alpha
T19 sequence (P08515 1-218, tags or fused parts left off): as above

[25] = biological target: T20, GST-TAX43 PDZ domain fusion protein (human tax interaction protein 43 AA15-85; PDZ domain 1 of 1) (human, UniProt P08515 1-218 = GST); test: A/G assays
T20 construct: also called TX 43
T20 sequence (P08515 1-218, tags or fused parts left off): as above

[26] = biological target: T7, GST-LIM PDZ domain fusion protein …; test: A assay
[27] = biological target: T9, GST-AF6 PDZ domain fusion protein (af-6 …); test: A assay
[28] = biological target: T12, GST-RGS12 PDZ domain fusion protein …; test: A assay
[29] = biological target: T8, GST-MPP2 PDZ domain fusion protein …; test: G assay
[30] = biological target: T3, GST-TIAM1 PDZ domain fusion protein …; test: A/G assays
[31] = biological target: T4, GST-KIAA0303 PDZ domain fusion protein …; test: A/G assays
[32] = biological target: T17, GST-PSD95 PDZ domain fusion protein …; test: A and G assays
[33] = biological target: T10, GST-PTN-4 PDZ domain fusion protein …; test: G assay
[34] = biological target: T12, GST-RGS12 PDZ domain fusion protein …; test: G assay
[35] = biological target: T1, GST-41.8 kD PDZ domain fusion protein …; test: A/G assays
[36] = biological target: T2, GST-MPP1 PDZ domain fusion protein (55 …); test: A/G assays
[37] = biological target: T5, GST-NeDLG PDZ domain fusion protein …; test: A/G assays

T1 sequence (P08515 1-218, tags or fused parts left off): as above

B1: VCAM1 C-terminal PL peptide AA17L, biotinylated (peptide)
peptide: Biotin-ARKANMKGSYSLVEAQKSKV
notes: also called CD106
Does B1 bind [1]?
Result: binds

Does B1 bind [2]?
Result: binds

Does B1 bind [3]?
Result: binds

Does B1 bind [4]?
Result: binds

Does B1 bind [5]?
Result: binds

Does B1 bind [6]?
Result: no binding

Does B1 bind [7]?
Result: no binding

Does B1 bind [8]?
Result: no binding

Does B1 bind [9]?
Result: no binding

Does B1 bind [10]?
Result: no binding

Does B1 bind [11]?
Result: no binding

Does B1 bind [12]?
Result: no binding

Does B1 bind [13]?
Result: no binding

Does B1 bind [14]?
Result: no binding

Does B1 bind [15]?
Result: no binding

Does B1 bind [16]?
Result: no binding

Does B1 bind [17]?
Result: no binding

Does B1 bind [18]?
Result: no binding

Does B1 bind [19]?
Result: no binding

Does B1 bind [20]?
Result: no binding

Does B1 bind [21]?
Result: no binding

Does B1 bind [22]?
Result: no binding

Does B1 bind [23]?
Result: no binding

Does B1 bind [24]?
Result: no binding

Does B1 bind [25]?
Result: no binding

B2: DNAM-1 C-terminal PL peptide AA22L, biotinylated (peptide)
peptide: Biotin-TREDIYVNYPTFSRRPKTRV
What does the source list for B2?
binding result [26]: binds; binding result [27]: binds; binding result [1]: binds; binding result [2]: binds; binding result [28]: binds; binding result [5]: binds; binding result [29]: binds; binding result [6]: no binding; binding result [8]: no binding; binding result [10]: no binding; binding result [12]: no binding; binding result [13]: no binding; binding result [14]: no binding; binding result [16]: no binding; binding result [17]: no binding; binding result [18]: no binding; binding result [30]: no binding; binding result [31]: no binding; binding result [19]: no binding; binding result [20]: no binding; binding result [21]: no binding; binding result [23]: no binding; binding result [24]: no binding; binding result [25]: no binding; binding result [32]: binds

B3: CDW125 (IL5R) C-terminal PL peptide AA28L, biotinylated (peptide)
peptide: Biotin-EVICYIEKPGVETLEDSVF
Does B3 bind [33]?
Result: binds

Does B3 bind [34]?
Result: binds

Does B3 bind [6]?
Result: no binding

Does B3 bind [7]?
Result: no binding

Does B3 bind [8]?
Result: no binding

Does B3 bind [9]?
Result: no binding

Does B3 bind [10]?
Result: no binding

Does B3 bind [11]?
Result: no binding

Does B3 bind [13]?
Result: no binding

Does B3 bind [35]?
Result: no binding

Does B3 bind [14]?
Result: no binding

Does B3 bind [36]?
Result: no binding

Does B3 bind [16]?
Result: no binding

Does B3 bind [17]?
Result: no binding

Does B3 bind [18]?
Result: no binding

Does B3 bind [30]?
Result: no binding

Does B3 bind [31]?
Result: no binding

Does B3 bind [19]?
Result: no binding

Does B3 bind [20]?
Result: no binding

Does B3 bind [21]?
Result: no binding

Does B3 bind [22]?
Result: no binding

Does B3 bind [37]?
Result: no binding

Does B3 bind [23]?
Result: no binding

Does B3 bind [24]?
Result: no binding

Does B3 bind [25]?
Result: no binding
